Patent publication WO2024019110A1 (dated 2024)

What follows are binders tested against Wuhan strain RBD (Ancestral), biotinylated (SARS-CoV-2 (Wuhan strain), UniProt P0DTC2 331-529) (assay: BLI (Octet), biotinylated RBD on streptavidin biosensor, Fab in solution).

Binder	Kd
recombinant Fab protein of antibody No. 2 (Fab, V domains shown) VH: EVQLVESGGGVVQPGRSLRLSCAASGFKFSKFAMHWVRQAPGKGPEWVAVISYDGNQYHSADSVKGRFTISRDNSFNTLYLQMNSLGPEDTAVYYCARDGPDTSGYYANIYFDFWGQGTLVTVSS VL: QSVLTQPPSVSGAPGQRVTISCTGSSSNIGAGYDVHWYQQLPGRAPKLLIFDNNNRPSGVPDRFSGSKSGTSASLAITGLQTEDEAYYYCQSYDNSLILAVFGGGTKVTVL	≤ 100 nM
recombinant Fab protein of antibody No. 7 (Fab, V domains shown) VH: EVQLLESGGGLVQPGGSLRLSCAASGFTFSRYALSWVRQAPGKGLEWVSAISGAAITTYYADSVKGRFTISRDDSRNTLFMQMDSLRAEDTAVYYCAKGDYYDSSGYLAEYFPHWGQGTLVTVSS VL: SYELTQPPSVSVSPGQTARITCFADALPKQHAYWYQQKAGQAPVLVIFKDTERPSGIPKRFSGSRSGATVTLTISGVQAEDEADYYCQSTDISGVLFGGGTKLTVL	≤ 100 nM
recombinant Fab protein of antibody No. 5 (Fab, V domains shown) VH: EVQLVESGGGLVQPGGSLRLSCAASGFTFYSYWMTWVRQAPGKGLEWVANIKHDESESHYVDSVRGRFTISRDNAKNSVYLQMKGLRAEDTAVYYCARDGGYNILTAYYHAPSYWGQGTLVTVSS VL: QSALTQPASVSGSPGQSITISCTGTSSDVGGYNFVSWYRQYPGKAPQLMIYDVSRRPSGDSDRFSGSKSGNTASLTISGLQAEDEAEYHCSSYTGRSPYVVFGGGTKVTVL	≤ 100 nM
recombinant Fab protein of antibody No. 6 (Fab, V domains shown) VH: QVQLVQSGPEVKKPGTSVKVSCKASGFTFYYSAVQWVRQARGQRLEWLGWMAVGSGKANYAQKFQERLTLTRDMSTSTAYMELSSLRSEDTAVYYCAAPNCTGGSCYDGFNLWGQGTVVTVSS VL: EIVLTQSPGTLSLSPGDRAILSCRASQTVNSNYLAWYQQKPGQAPRLLIYGTSSRATGIPDRFSGSGSGTDFTLTISRLEPEDFAVYYCQQYGSSPWLFGQGTKVEIK	≤ 100 nM
